Measurements from doi:10.1101/2022.03.18.484894, “Molecular determinants of the Bacillus subtilis chromosome origin basal unwinding system”.

B1: B. subtilis WT BUS scaffold (EMSA substrate) (dsDNA)
DNA 1: ACTTATCCACAAATCCACAGGCCC
DNA 2: TACTATTACTTCTACTA
DNA 3: TAGTAGAAGTAATAGTAGGGCCTGTGGATTTGTGGATAAGT
B2: BUS scaffold with phosphorothioate backbone (EMSA) (XNA)
DNA 1: ACTTATCCACAAATCCACAGGCC
DNA 2: CTACTATTACTTCTACTA
DNA 3: B1 DNA 3
modifications: phosphorothioate linkages in the DnaA-trio region; exact positions of the EMSA version not stated

Columns and labels:
DnaA R264A = DnaA R264A (Bacillus subtilis, UniProt P05648 1-446, R264A); assay: EMSA; smaller complex that enters the gel; EMSA: 13 nM scaffold, 250-1000 nM DnaA, 10 mM HEPES-KOH pH 8, 100 mM K-glutamate, 1 mM Mg acetate, 30% glycerol, 10% DMSO, 1 mM ADP or ATP, 20 C, 3 h; 6% PAGE with 5 mM MgCl2; details: protein: recombinant; tags: none after cleavage of His14-SUMO; label: 5'-Cy3 on strand 1 (oHM752); 5'-Cy5 on strand 2 (oHM590); three-strand duplex: strands 1 and 2 adjacent (nick) on 41-nt strand 3, blunt
DnaA [1] = target: T1, DnaA (Bacillus subtilis, UniProt P05648 1-446); assay: EMSA; ATP; large complex near the well plus strand separation; EMSA: 13 nM scaffold, 250-1000 nM DnaA, 10 mM HEPES-KOH pH 8, 100 mM K-glutamate, 1 mM Mg acetate, 30% glycerol, 10% DMSO, 1 mM ADP or ATP, 20 C, 3 h; 6% PAGE with 5 mM MgCl2; details: protein: recombinant; tags: none after cleavage of His14-SUMO; label: 5'-Cy3 on strand 1 (oHM752); 5'-Cy5 on strand 2 (oHM590); three-strand duplex: strands 1 and 2 adjacent (nick) on 41-nt strand 3, blunt
DnaA [2] = target: T1, DnaA; assay: EMSA; ATP; large complexes enter the gel poorly; EMSA: 13 nM scaffold, 250-1000 nM DnaA, 10 mM HEPES-KOH pH 8, 100 mM K-glutamate, 1 mM Mg acetate, 30% glycerol, 10% DMSO, 1 mM ADP or ATP, 20 C, 3 h; 6% PAGE with 5 mM MgCl2; details: protein: recombinant; tags: none after cleavage of His14-SUMO; label: Cy3 on annealed strand; Cy5 on separated strand; three-strand scaffold

Row | Binder | binding result (DnaA R264A) | binding result (DnaA [1]) | binding result (DnaA [2])
1 | B1 | binds | binds | –
2 | B2 | – | – | binds
